Results as given in patent publication US7067277B1, “Chimeric G proteins and uses thereof” (H. Lundbeck A/S, priority 1999, dated 2006).

What was measured:
Format in all cases: cell-based
r NTR1 = molecular target: T1, r NTR1 (Rattus norvegicus, UniProt P20789); experiment: Calcium mobilization (FLIPR, Fluo-3) in transfected COS-7 cells; conditions: r NTR1 + chimera in COS-7; agonist NT, max 1 μM
T1 construct: expressed in transfected cells; host or cells: COS-7
Outline: (§1)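 Calcium responses to agonist were measured in COS-7 cells co-expressing each receptor with Gαq/z and/or Gαq/s chimeras, using Fluo-3 dye and FLIPR detection over 3 min at room temperature.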

r GALR1 = molecular target: T2, r GALR1 (Rattus norvegicus, UniProt Q62805); experiment: as above; conditions: r GALR1 + chimera in COS-7; agonist GAL, max 10 μM
T2 sequence (Q62805 1-346): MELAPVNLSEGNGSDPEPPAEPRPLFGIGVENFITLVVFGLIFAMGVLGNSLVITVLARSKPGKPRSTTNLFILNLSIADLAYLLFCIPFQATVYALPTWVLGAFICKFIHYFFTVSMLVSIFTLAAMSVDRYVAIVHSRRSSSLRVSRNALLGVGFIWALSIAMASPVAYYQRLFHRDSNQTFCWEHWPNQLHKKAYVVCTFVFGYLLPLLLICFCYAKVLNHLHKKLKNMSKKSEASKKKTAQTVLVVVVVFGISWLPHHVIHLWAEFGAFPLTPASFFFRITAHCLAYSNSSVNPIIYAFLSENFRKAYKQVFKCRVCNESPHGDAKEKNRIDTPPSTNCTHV
Outline: as §1

Human NPFF2 = molecular target: T3, Human NPFF2 (Homo sapiens, UniProt Q9Y5X5); experiment: Cl- current recording in Xenopus oocytes expressing GPCR and chimeric G protein; conditions: Xenopus oocytes expressing Human NPFF2 and chimera; mean ± s.e.m
T3 construct: linearized plasmids or PCR products containing the complete coding region of the genes; expressed in transfected cells; host or cells: Xenopus laevis oocytes (receptor cRNA injected)
Procedure: Oocytes were harvested from Xenopus laevis and injected with mRNA transcripts as previously described (Quick and Lester, 1994; Smith et al., 1997). Receptor and chimeric G protein α subunit RNA transcripts were synthesized using the T7 polymerase (“Message Machine,” Ambion) from linearized plasmids or PCR products containing the complete coding region of the genes. Oocytes were injected with 5–25 ng synthetic receptor RNA and incubated for 3–8 days at 17 degrees. Three to eight hours prior to recording, oocytes were injected with 500 pg chimeric Gα subunit mRNA. Dual electrode voltage clamp (Axon Instruments Inc.) was performed using 3 M KCl-filled glass microelectrodes having resistances of 1–2 MOhm. Unless otherwise specified, oocytes were voltage clamped at a holding potential of −80 mV. During recordings, oocytes were bathed in continuously flowing (1–3 ml/min) medium containing 96 mM NaCl, 2 mM KCl, 1.8 mM CaCl2, 1 mM MgCl2, and 5 mM HEPES, pH 7.5 (ND96). Drugs were applied by local perfusion from a 10 μl glass capillary tube fixed at a distance of 0.5 mm from the oocyte. Experiments were carried out at room temperature. All values are expressed as mean±standard error of the mean.

h D1 = molecular target: T4, h D1 (Homo sapiens, UniProt P21728); experiment: Calcium mobilization (FLIPR, Fluo-3) in transfected COS-7 cells
T4 construct: expressed in transfected cells; host or cells: COS-7
Procedure: COS-7 cells were cultured in 225 cm^2 flasks in Dulbecco's Modified Eagle Medium (DMEM) with supplements (10% bovine calf serum, 4 mM glutamine, 100 units/ml penicillin and 100 μg/ml streptomycin) at 37° C., 5% CO2. Stock plates of COS-7 cells were trypsinized and split 1:6 every 3–4 days.
For evaluating the function of a single chimeric G protein, the standard cDNA transfection ratio was 1:1 (10 μg GPCR cDNA and 10 μg chimeric G protein cDNA). For evaluating the function of a mixture of chimeric G proteins, the standard cDNA transfection ratio was 8:1:1 (16 μg GPCR cDNA, 2 μg Gαq/z cDNA, 2 μg Gαq/s cDNA).
Twenty four hours after transient transfection, COS-7 cells were seeded into 96-well black wall microtiter plates coated with poly-D-lysine for assay the following day. […] After excess dye was discarded, cells were washed in assay buffer and layered with a final volume equal to 100 μl/well. Basal fluorescence was monitored in a fluorometric imaging plate reader (FLIPR™, Molecular Devices) with an excitation wavelength of 488 nm and an emission range of 500 to 560 nm. Laser excitation energy was adjusted so that basal fluorescence readings were approximately 10,000 relative fluorescent units. Cells were stimulated with agonists diluted in assay buffer (50 μl), and relative fluorescent units were measured at defined intervals (exposure=0.4 sec) over a 3 min period at room temperature. Maximum change in fluorescence was calculated for each well. Concentration-response curves derived from the maximum change in fluorescence were analyzed by nonlinear regression (Hill equation).

T4 sequence (P21728 whole entry): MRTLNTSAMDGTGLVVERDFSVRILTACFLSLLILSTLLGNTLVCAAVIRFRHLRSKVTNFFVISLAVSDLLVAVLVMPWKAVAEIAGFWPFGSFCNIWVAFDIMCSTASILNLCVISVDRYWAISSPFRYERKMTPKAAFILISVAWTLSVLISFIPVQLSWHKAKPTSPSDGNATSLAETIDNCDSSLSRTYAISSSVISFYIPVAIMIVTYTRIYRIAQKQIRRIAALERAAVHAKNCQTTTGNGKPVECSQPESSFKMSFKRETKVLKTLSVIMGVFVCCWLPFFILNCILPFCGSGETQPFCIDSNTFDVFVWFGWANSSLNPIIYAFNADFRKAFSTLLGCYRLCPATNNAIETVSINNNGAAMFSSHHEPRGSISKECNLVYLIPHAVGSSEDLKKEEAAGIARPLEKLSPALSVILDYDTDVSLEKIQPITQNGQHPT
T1 sequence (P20789 whole entry): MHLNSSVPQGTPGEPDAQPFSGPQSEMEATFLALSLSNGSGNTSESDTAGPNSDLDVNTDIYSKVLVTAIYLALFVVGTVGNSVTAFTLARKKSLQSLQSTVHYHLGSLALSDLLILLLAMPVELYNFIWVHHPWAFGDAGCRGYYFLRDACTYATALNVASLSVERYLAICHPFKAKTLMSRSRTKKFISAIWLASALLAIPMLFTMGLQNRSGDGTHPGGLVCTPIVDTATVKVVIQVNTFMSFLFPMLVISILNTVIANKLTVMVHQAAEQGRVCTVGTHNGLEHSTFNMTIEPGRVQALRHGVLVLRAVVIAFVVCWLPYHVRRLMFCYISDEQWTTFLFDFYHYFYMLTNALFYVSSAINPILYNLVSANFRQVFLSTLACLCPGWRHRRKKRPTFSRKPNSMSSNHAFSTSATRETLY
T3 sequence (Q9Y5X5 103-522): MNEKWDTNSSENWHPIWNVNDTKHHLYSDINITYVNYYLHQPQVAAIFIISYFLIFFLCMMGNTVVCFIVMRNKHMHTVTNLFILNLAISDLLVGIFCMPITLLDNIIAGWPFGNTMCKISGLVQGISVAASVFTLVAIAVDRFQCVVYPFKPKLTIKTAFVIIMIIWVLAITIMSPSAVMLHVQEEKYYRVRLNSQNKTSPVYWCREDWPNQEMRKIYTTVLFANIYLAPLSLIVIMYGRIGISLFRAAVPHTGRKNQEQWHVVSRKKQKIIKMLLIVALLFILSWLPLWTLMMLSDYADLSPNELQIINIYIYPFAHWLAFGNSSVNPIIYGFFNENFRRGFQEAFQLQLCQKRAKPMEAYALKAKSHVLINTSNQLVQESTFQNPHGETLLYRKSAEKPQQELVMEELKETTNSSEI

Molecule	MAXIMAL SIGNAL (FLUORESCENCE UNITS) (r NTR1) [fluorescence units]	MAXIMAL SIGNAL (FLUORESCENCE UNITS) (r GALR1) [fluorescence units]	Response amplitudes (nA) in oocytes (Human NPFF2) [nA]	maximal signal (h D1; human D1 receptor in COS-7, dopamine 0.3 nM to 100 μM concentration-response curve, example shown, FIG. 4B)	MAXIMAL SIGNAL (FLUORESCENCE UNITS) (h D1; human D1 receptors in COS-7, 10 μg chimera cDNA and 10 μg receptor cDNA, 100 μM dopamine, Table 9 parallel comparison, mean of two experiments) [fluorescence units]	MAXIMAL SIGNAL (FLUORESCENCE UNITS) (h D1; h D1 + chimera in COS-7, agonist DA, max 100 μM) [fluorescence units]
cGαq/z5: chimeric Gα subunit: C-terminal final 5 amino acids of C. elegans Gαq replaced with those of hGαz (SEQ ID NO: 1) (protein, C. elegans) MACCLSEEAREQKRINQEIEKQLQRDKRNARRELKLLLLGTGESGKSTFIKQMRIIHGQGYSEEDKRAHIRLVYQNVFMAIQSMIRAMDTLDIKFGNESEELQEKAAVVREVDFESVTSFEEPYVSYIKELWEDSGIQECYDRRREYQLTDSAKYYLSDLRRLAVPDYLPTEQDILRVRVPTTGIIEYPFDLEQIIFRMVDVGGQRSERRKWIHCFENVTSIMFLVALSEYDQVLVECDNENRMEESKALFRTIITYPWFTNSSVILFLNKKDLLEEKILYSHLADYFPEYDGPPRDPIAAREFILKMFVDLNPDADKIIYSHFTCATDTENIRFVFAAVKDTILQHNLKYIGLC	14476	3086	1121 ± 261	14,723 fluorescence units	4832	–
cGαq/z9: C. elegans Gαq with Gαz portion of the C-terminal tail extended to 9 amino acids (SEQ ID NO: 2) (protein, C. elegans) MACCLSEEAREQKRINQEIEKQLQRDKRNARRELKLLLLGTGESGKSTFIKQMRIIHGQGYSEEDKRAHIRLVYQNVFMAIQSMIRAMDTLDIKFGNESEELQEKAAVVREVDFESVTSFEEPYVSYIKELWEDSGIQECYDRRREYQLTDSAKYYLSDLRRLAVPDYLPTEQDILRVRVPTTGIIEYPFDLEQIIFRMVDVGGQRSERRKWIHCFENVTSIMFLVALSEYDQVLVECDNENRMEESKALFRTIITYPWFTNSSVILFLNKKDLLEEKILYSHLADYFPEYDGPPRDPIAAREFILKMFVDLNPDADKIIYSHFTCATDTENIRFVFAAVKDTILQNNLKYIGLC	6111	5947	–	–	–	13099
